We go through 2 molecules from US20240092867A1 (UNIVERSITY OF CHICAGO, published 2024).

Experiment [1] addresses T1, vascular endothelial growth factor (VEGF)-A121 (human, UniProt P15692-9 27-147).
T1 construct: mature; Purchased in mature form, not glycosylated
T1 sequence (looked up): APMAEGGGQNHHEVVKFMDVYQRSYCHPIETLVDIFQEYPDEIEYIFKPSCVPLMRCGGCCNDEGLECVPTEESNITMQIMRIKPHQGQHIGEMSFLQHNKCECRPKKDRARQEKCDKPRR
In words: ELISA; peptides and vWF forms coated at 50 nM, VEGF-A in solution, detected with anti-VEGF-A antibody [panel D]. Here is the method: (A) Diagram of exon sequence of VEGF-A showing inclusion (+) or exclusion (−) of heparin binding domain exons for the different VEGF-A isoforms. […] Bound VEGF-A was detected using a specific antibody for VEGF-A (n=4, mean±SD). Statistical comparisons were done using ANOVA with Tukey's test compared with BSA control. **p<0.01.
(§1) ELISA was performed as previously reported1. […] After blocking with 2% BSA solution containing PBS-T, 1 μg/mL of recombinant human VEGF-A121 (PeproTech), recombinant human VEGF-A145 (R & D Systems), or recombinant human VEGF-A165 (PeproTech) was added. Bound VEGF-A was detected with 1 μg/mL of mouse anti-human VEGF-A antibody (clone: 26503, R & D systems). After 60 min of incubation, horseradish peroxidase (HRP) conjugated goat anti-mouse antibody (1:2000 dilution, Dako) was added and incubated for another 60 min. Color development and the absorbance measurement were done as described above.

Experiment [2] addresses T2, vascular endothelial growth factor (VEGF)-A165 (human, UniProt P15692-4 27-191).
T2 construct: mature; Purchased in mature form, not glycosylated
In words: ELISA, peptide coated 50 nM. Here is the method: as §1

Experiment [3] has as its target T3, recombinant human VEGF-A145 (human, UniProt P15692-6 27-171).
T3 sequence (looked up): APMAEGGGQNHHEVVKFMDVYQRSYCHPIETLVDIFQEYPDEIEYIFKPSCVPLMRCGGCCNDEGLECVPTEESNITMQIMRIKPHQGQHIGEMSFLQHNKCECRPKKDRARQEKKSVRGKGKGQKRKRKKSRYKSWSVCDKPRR
In words: ELISA, peptide coated 50 nM. On the procedure:
as §1

The target of experiment [4] is T2, vascular endothelial growth factor …. In words: ELISA, peptide coated. The method in brief:
(§2)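 Wells coated with 10 μg/mL laminin α3/α4/α5 LG-domain peptides, BSA-coated wells as non-binding control, blocked with 2% BSA PBS-T. Recombinant human GFs added at 1 μg/mL; bound GF detected with GF-specific biotinylated antibody plus streptavidin-HRP (n=4, mean±SEM).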

The target in experiment [5] is T4, placental growth factor (PlGF)-1 (human, UniProt P49763-2 19-149).
T4 construct: mature; Purchased in mature form
T4 sequence (looked up): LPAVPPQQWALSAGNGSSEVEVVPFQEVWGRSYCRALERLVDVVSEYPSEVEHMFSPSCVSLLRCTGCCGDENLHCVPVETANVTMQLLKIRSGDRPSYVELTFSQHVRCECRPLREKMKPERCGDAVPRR
In words: ELISA, peptide coated. In outline: as §2

Experiment [6] concerns the target T5, placental growth factor (PlGF)-2 (human, UniProt P49763-3 19-170).
T5 construct: mature; Purchased in mature form
T5 sequence (looked up): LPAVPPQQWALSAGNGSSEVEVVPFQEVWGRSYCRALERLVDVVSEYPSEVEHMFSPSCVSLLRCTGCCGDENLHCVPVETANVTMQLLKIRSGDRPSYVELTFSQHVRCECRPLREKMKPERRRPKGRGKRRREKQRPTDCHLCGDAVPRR
In words: ELISA, peptide coated. In outline:
as §2

The target in experiment [7] is T6, fibroblast growth factor (FGF)-2 (human, UniProt P09038 143-288).
T6 construct: mature; Purchased in mature form
Put plainly: ELISA, peptide coated. The method in brief:
as §2

The target in experiment [8] is T7, platelet-derived growth factor (PDGF)-BB (human, UniProt P01127 82-190).
T7 construct: mature; Purchased in mature form
Put plainly: ELISA, peptide coated. The method in brief:
as §2

Experiment [9] concerns the target T1, vascular endothelial growth factor …. In words: ELISA, peptide coated. The method in brief:
as §2

T6 sequence (P09038 143-288): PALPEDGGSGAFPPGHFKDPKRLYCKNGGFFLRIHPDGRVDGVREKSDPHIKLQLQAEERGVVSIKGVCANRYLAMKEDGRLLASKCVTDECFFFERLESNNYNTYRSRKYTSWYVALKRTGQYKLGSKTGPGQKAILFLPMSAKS
T7 sequence (P01127 82-190): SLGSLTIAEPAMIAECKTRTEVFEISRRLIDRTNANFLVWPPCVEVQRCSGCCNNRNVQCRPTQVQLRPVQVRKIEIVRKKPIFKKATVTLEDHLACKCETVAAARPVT

B1: Scrambled HBD (peptide)
peptide: LYCEIARGYSLKRKVPDQIRSRKA
notes: also called scrambled vWF A1 HBD peptide
With B1, the binding result in experiment [1] is reported as “no binding (tested: 1 µg/mL VEGF-A121 (single concentration))”; in experiment [2] it was “no binding (tested: 1 µg/mL)”; in [3], “no binding (tested: 1 µg/mL)”.

For the molecule ARKASRRSRQPARH (Chemically synthesized (Genscript)) [laminin α5 3312-3325 peptide (Linker)], the binding result in experiment [4], in experiment [5], in experiment [6], in experiment [7], in experiment [8] and in experiment [9] was “no binding (tested: 1 µg/mL)” each time.
